Data: patent US8455427B2, “Methods of modifying insulin signaling using biliverdin reductase” (University of Rochester, priority 2005, dated 2013)
One block for each molecule: values may come before it.

Assays:
[1] = molecular target: T1, insulin receptor tyrosine kinase (IRK) (Homo sapiens, UniProt P06213); experiment: BVR phosphorylation by the insulin receptor tyrosine kinase (IRK), in vitro [32P]-ATP assay; format: biochemical; details: for time course of phosphorylation by IRK: incubation with IRK up to 3-4 h, pH 8.0
T1 construct: the 48 kDa cytoplasmic domain of the β-subunit of IRK; purchased Biomol International (Plymouth, Pa.)
T1 sequence (P06213 980-1382 limits assumed): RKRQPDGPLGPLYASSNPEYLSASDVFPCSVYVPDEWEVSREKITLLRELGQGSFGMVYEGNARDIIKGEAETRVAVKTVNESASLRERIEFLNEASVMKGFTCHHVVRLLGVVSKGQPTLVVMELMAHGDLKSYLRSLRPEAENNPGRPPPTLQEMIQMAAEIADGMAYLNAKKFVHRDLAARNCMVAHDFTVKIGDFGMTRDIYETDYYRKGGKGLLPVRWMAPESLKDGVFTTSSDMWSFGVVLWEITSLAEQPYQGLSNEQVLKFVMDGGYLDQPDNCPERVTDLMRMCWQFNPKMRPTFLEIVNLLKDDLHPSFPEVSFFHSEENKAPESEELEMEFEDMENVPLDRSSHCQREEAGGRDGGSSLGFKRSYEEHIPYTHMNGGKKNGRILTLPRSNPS
Protocol: BVR phosphoiylation by the insulin receptor tyrosine kinase (IRK): Phosphorylation of BVR by IRK was examined using GST-HBVR fusion protein and the 48 kDa cytoplasmic domain of the β-subunit of IRK. BVR (5 μg) was incubated in 50 μl of IRK kinase buffer containing 50 mM HEPES (pH 8.0), 20 mM MgCl2, 1 mM DTT in the presence of 0.05 μg IRK and 10 μM ATP labeled with 10 μCi [γ-^32P]-ATP. The reaction was started with the addition of labeled ATP and incubated for 2-4 h. Reactions were terminated by addition of Laemmli sample buffer and boiled for 3 min. Samples were subjected to 8% SDS-PAGE and transferred to PVDF membranes for autoradiography.

293A cells = experiment: Insulin-mediated glucose uptake (2-deoxy 1-[3H] glucose); format: cell-based, human; details: insulin 15 min, vs controls infected with vector alone, p≦0.05
Protocol: Cell culture and transfection and infection of 293A: 293A cells were grown in 10 cm-plates with Dulbecco's Modified Eagle Medium (DMEM) (Invitrogen, Carlsbad, Calif.) containing 10% fetal bovine serum and 1% penicillin-G/streptomycin for 24 h or until a confluency of 70% was reached. Cells were subsequently transfected with 4 μg of pcDNA3 mutant BVR Y^198 using Transfectin Lipid Reagent (Bio-Rad, Hercules, Calif.), according to the manufacturer's procedure and incubated for 48 h at 37° C. In addition, non-transfected cells were infected with pSuper-Retro-siBVR for 24 h in the presence of 4 μg/ml polybrene. Cells were starved in serum-free DMEM 16 h prior to insulin treatment (50 nM).
Glucose uptake: Glucose uptake was assessed by measuring 2-deoxy 1-[^3H] glucose (2DG) absorption as described by (Braiman et al. (Mol. Endocrinol. 13:2002-12 (1999)), which is hereby incorporated by reference), with minor modifications. Briefly, after insulin treatment, cells in 6-wells plates were incubated in 1 ml PBS containing 5 mM glucose and 1 μCi/ml 2DG for 15 min. Solution was aspirated rapidly and wells were washed 3 times with cold PBS. Cells were solubilized by addition of 200 μl 1% (w/v) SDS. Radioactivity was measured and data was normalized to protein concentration. Non-specific uptake was determined in the presence of 200 mM of glucose and was subtracted from the total uptake. […]

human BVR = experiment: BVR autophosphorylation; format: biochemical; details: pH 8.4, 30 mM MnCl2, 2 h, 30° C.
Protocol: BVR autophosphorylation and kinase activity: To detect autophosphorylation of BVR, GST-hBVR of wild type (wt) and mutant variants were incubated in 50 mM HEPES buffer (pH 8.4) in the presence of 30 mM MnCl2 and 1 mM DTT for 2 h at 30° C. The reaction was started with the addition of 10 μM ATP labeled with 10 μCi [γ-^32P]-ATP and was stopped with the addition of Laemmli sample buffer. Samples were boiled for 3 min and applied to a 8% SDS-PAGE gels, transferred to a PVDF membrane, and then visualized by autoradiography. To measure kinase activity, GST-BVR (5 μg) was incubated in 50 μl kinase buffer containing 50 mM HEPES buffer (pH 8.4), 20 mM MgCl2, 30 mM MnCl2, 1 mM DTT and 10 μM ATP labeled with 10 μCi [γ-^32P]-ATP in the presence of 5 μg substrates: IRS-1 or Raytide or poly glu/tyr (4:1) for 2 h at 30° C. The reaction was started with the addition of ATP and terminated by adding 120 μl 10% H3PO4. 100 μl aliquots were directly transferred to P81 Whatman filters which were subsequently washed extensively in 0.75% phosphoric acid at room temperature. Finally, the filters were submerged in acetone for 5 min, dried, and retained counts were measured using a Beckman LS 6500 liquid scintillation counter (Beckman Coulter, Fullerton, Calif.).

[2] = Reductase activity of purified BVR; format: biochemical, human; details: purified BVR not phosphorylated by IRK
Protocol: Measurement of BVR Reductase Activity: 293A cells treated with insulin were lysed in buffer containing a protease inhibitor cocktail and phosphatase inhibitors (10 mM NaF, […]). BVR activity was measured at pH 6.7 using NADH as the cofactor as described previously (Huang et al., J. Biol. Chem. 264:7844-9 (1989), which is hereby incorporated by reference in its entirety). The rate of conversion of biliverdin to bilirubin was determined as the increase in absorbance at 450 nm at 25° C. Specific activity is expressed as μmol of bilirubin/min/mg of protein.

time course of phosphorylation by IRK [1]: less effective substrate for IRK | decrease of BVR phosphorylation by IRK caused by point mutation ([1]; mutant vs wtBVR, IRK 2 h at 30° C.): ~70%
B1: Y^198: human BVR point mutant, DQYMK to DQFMK (protein, UniProt P53004 3-296, looked up, variant Y198F)
Biliverdin reductase A: AEPERKFGVVVVGVGRAGSVRMRDLRNPHPSSAFLNLIGFVSRRELGSIDGVQQISLEDALSSQEVEVAYICSESSSHEDYIRQFLNAGKHVLVEYPMTLSLAAAQELWELAEQKGKVLHEEHVELLMEEFAFLKKEVVGKDLLKGSLLFTAGPLEEERFGFPAFSGISRLTWLVSLFGELSLVSATLEERKEDQFMKMTVCLETEKKSPLSWIEEKGPGLKRNRYLSFHFKSGSLENVPNVGVNKNIFLKDQNIFVQKLLGQFSEKELAAEKKRILHCLGLAEEIQKYCCSRK
insulin-mediated glucose uptake (293A cells): increased significantly | autophosphorylation of BVR mutants (human BVR): did not result in significant changes in autophosphorylation of BVR

B2: biliverdin reductase (protein)
chain: MNAEPERKFGVVVVGVGRAGSVRMRDLRNPHPSSAFLNLIGFVSRRELGSIDGVQQISLEDALSSQEVEVAYICSESSSHEDYIRQFLNAGKHVLVEYPMTLSLAAAQELWELAEQKGKVLHEEHVELLMEEFAFLKKEVVGKDLLKGSLLFTSDPLEEDRFGFPAFSGISRLTWLVSLFGELSLVSATLEERKEDQYMKMTVCLETEKKSPLSWIEEKGPGLKRNRYLSFHFKSGSLENVPNVGVNKNIFLKDQNIFVQKLLGQFSEKELAAEKKRILHCLGLAEEIQKYCCSRK
modifications: left off: a dimerising Fc or GST
time course of phosphorylation by IRK [1]: detected when assessed at 1 h, and gradually increased up to 4 h | BVR reductase activity of the control [2]: 43.8 μmol per min per mg
